Laboratory results reported in US20160333110A1 (CHIOME BIOSCIENCE, published 2016).
Substitutions are numbered along the chain they refer to. In names and notes the source's numbering stands.

Columns and labels:
[1] = molecular target: T1, human TROP-2 (hTROP-2) endogenously expressed on the cell surface of human cancer cell lines (human, UniProt P09758 27-323); test: FACS on PK-59 cells, 0.1 µg antibody
T1 construct: also called TACSTD2; PK-59 cells
T1 sequence: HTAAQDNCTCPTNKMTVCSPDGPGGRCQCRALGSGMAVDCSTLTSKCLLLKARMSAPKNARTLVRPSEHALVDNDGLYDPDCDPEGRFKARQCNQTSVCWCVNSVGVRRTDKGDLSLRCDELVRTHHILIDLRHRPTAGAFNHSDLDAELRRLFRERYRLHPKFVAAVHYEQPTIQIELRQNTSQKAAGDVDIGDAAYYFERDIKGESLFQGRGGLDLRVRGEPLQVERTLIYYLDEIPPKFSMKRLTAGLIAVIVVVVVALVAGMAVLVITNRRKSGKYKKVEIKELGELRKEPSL
Method: (§1) Cancer cells were removed from a culture dish by a trypsin treatment, and a cell suspension was then prepared (cell density: 2×10⁶ cells/mL). An anti-hTROP-2 monoclonal antibody (0.1 μg) was added to 100 μL of the cell suspension, and they were then reacted at 4° C. for 20 minutes. The reaction solution was washed with PBS, and it was then reacted with PE-labeled anti-mouse IgG (BD Biosciences Pharmingen) (0.1 μg) (at 4° C. for 30 minutes). Thereafter, the resultant was analyzed by FACSCalibur (Becton, Dickinson and Company).
(§2) Subsequently, the reactivity of the generated anti-hTROP-2 monoclonal antibodies with human cancer cell lines (in which an hTROP-2 protein was endogenously expressed on the cell surface) was examined by FACS analysis.

[2] = molecular target: T1, human TROP-2 (hTROP-2) endogenously …; test: FACS on BxPC-3 cells, 0.1 µg antibody
Method: as §1, §2

[3] = molecular target: T2, mouse TROP-2 protein transiently expressed in CHO-K1 cells (mouse, UniProt Q8BGV3 25-317); test: FACS on CHO-K1 cells transiently expressing mouse TROP-2
T2 construct: whole, on cells
T2 sequence (looked up): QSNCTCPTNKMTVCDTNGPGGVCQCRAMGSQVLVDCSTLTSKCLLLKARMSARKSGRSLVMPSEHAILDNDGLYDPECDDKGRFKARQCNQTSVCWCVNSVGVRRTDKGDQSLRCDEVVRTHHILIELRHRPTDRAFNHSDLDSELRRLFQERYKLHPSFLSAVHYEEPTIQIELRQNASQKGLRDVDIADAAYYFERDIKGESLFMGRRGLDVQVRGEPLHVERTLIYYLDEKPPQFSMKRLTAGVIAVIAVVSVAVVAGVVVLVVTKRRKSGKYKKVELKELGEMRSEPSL
Text: (§3) Specifically, each of an expression vector (mouse TROP-2-pcDNA3.1(+), furnished by the Institute of Molecular and Cellular Biosciences, the University of Tokyo) comprising the full-length cDNA of a mouse TROP-2 gene (GenBank accession No. NM_020047, Y08830), and an expression vector (pcDNA3.1-hEpCAM-myc/His) comprising the full-length cDNA of a human TROP-1/EpCAM gene (GenBank accession No. NM_002354), was transiently introduced into CHO-K1 cells, using Lipofectamine2000 reagent (Invitrogen). Thereafter, 24 to 48 hours later, the cells were removed from a culture dish by treating them with trypsin, and a cell suspension was then prepared. The thus prepared cell suspension was successively reacted with the produced anti-hTROP-2 monoclonal antibody (0.1 μg) and with PE-labeled anti-mouse IgG, and it was then analyzed by FACSCalibur.

[4] = molecular target: T3, human TROP-1/EpCAM protein transiently expressed in CHO-K1 cells (human, UniProt P16422 24-314); test: FACS on CHO-K1 cells transiently expressing human EpCAM/TROP-1
T3 construct: whole, on cells; also called human EpCAM/TROP-1; hEpCAM; not shown: C-terminal myc/His tag from pcDNA3.1-hEpCAM-myc/His
T3 sequence (looked up): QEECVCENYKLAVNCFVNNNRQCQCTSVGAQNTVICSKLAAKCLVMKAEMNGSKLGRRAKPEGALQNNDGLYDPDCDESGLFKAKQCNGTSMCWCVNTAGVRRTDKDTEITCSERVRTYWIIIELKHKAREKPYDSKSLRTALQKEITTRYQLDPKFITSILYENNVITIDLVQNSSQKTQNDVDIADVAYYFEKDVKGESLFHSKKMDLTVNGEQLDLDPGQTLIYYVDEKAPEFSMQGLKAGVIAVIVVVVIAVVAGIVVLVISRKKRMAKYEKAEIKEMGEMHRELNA
Text: as §3

[5] = molecular target: T4, recombinant protein of the hTROP-2 extracellular region (human, UniProt P09758 27-263); test: antigen-coated ELISA, plate coated with 0.5 µg/ml hTROP-2 extracellular region
T4 construct: produced with baculovirus, purified on Ni Sepharose; also called hTROP-2 EC; hTROP-2-EC-His; not shown: C-terminal myc-His tag from pcDNA4/myc-His A
T4 sequence: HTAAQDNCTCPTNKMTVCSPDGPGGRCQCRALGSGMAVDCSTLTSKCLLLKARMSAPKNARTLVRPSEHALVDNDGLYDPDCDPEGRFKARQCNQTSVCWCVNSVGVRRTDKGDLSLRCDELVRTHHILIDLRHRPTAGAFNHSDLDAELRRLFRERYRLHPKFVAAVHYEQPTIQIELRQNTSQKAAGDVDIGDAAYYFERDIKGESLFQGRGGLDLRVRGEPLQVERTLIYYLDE
Method: (§4) Furthermore, antigen affinity was also examined by an ELISA method. ELISA was carried out using an ELISA plate which was coated with the recombinant protein of the hTROP-2 extracellular region as described in Example 3. Specifically, a 96-well plate (BD FALCON) was coated with a 50 μl/well recombinant protein of a hTROP-2 extracellular region that had been diluted with PBS to 0.5 μg/ml (at 4° C. overnight). Thereafter, the resultant was washed with a washing buffer (PBS containing 0.05% Tween 20), and a blocking buffer (PBS containing 2% skim milk and 0.05% Tween 20) was then added thereto (200 μl/well) to block it (at room temperature for 1 hour). The resultant was washed with a washing buffer. […] The obtained dilution samples were each added in an amount of 50 μl/well to the above-described ELISA plate (at room temperature for 2 hours). […] After the mixture had been washed with a washing buffer, a TMB (3,3′,5,5′-tetramethylbenzidine: SIGMA) substrate solution was added (50 μl/well) to the resultant to carry out a color reaction. Then, 1 M sulfuric acid (25 μl/well) was added to the reaction product to terminate the reaction. Using Microplate reader Model 550 (BioRad), an absorbance at 450 nm was measured with an absorbance at 655 nm used as a reference.

[6] = molecular target: T5, recombinant hTACSTD2-Fc-His protein (Creative BioMart) (human, UniProt P09758 27-274, limits assumed); test: low-density antigen-coated ELISA, plate coated with 0.1 µg/mL hTACSTD2-Fc-His
T5 construct: bought protein; also called hTROP-2 (low-density antigen-coated ELISA); not shown: Fc part of the bought fusion protein; not described; His tag
T5 sequence: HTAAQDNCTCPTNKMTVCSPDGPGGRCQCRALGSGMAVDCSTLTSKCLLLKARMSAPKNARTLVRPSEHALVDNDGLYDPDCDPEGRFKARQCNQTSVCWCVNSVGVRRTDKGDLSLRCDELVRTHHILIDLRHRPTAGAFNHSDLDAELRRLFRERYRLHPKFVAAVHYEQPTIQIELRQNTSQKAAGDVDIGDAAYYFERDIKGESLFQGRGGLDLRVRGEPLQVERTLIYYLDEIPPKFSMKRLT
Method: as §4, with “Specifically, a 96-well plate (BD FALCON) was coated with a 50 μl/well recombinant protein of a hTROP-2 extracellular region that had been diluted with PBS to 0.5 μg/ml (at 4° C. overnight).” left out

[7] = molecular target: T4, recombinant protein of the hTROP-2 …; test: monovalent ELISA: antibody captured by anti-human IgG Fc, hTROP-2 EC titrated in solution, detected with anti-His
Method: Thereafter, coating was carried out at 4° C. overnight. Thereafter, the reaction product was washed with a washing buffer (PBS containing 0.05% Tween 20), and a blocking buffer (PBS containing 2% skim milk and 0.05% Tween 20) was then added thereto (200 μL/well) to block it (at room temperature for 1 hour). The resultant was washed with a washing buffer. […] The mixture was left at rest at room temperature for 1 hour, and the reaction product was then washed with a washing buffer. The recombinant protein of the hTROP-2 extracellular region described in Example 3 (hTROP-2 EC) was diluted with an ELISA buffer to prepare samples with a concentration range from 5 μg/mL to a series of three-fold dilutions (10 samples). The thus obtained sample was added in each amount of 50 μL/well to the plate. The mixture was left at rest at room temperature for 1 hour, and the reaction product was then washed with a washing buffer. […] The obtained mixture was left at rest at room temperature for 1 hour, and it was then washed with a washing buffer. […] The obtained mixture was left at rest at room temperature for 1 hour, and it was then washed with a washing buffer. […] Using Microplate reader Model 550 (BioRad), an absorbance at 450 nm was measured with an absorbance at 655 nm used as a reference.

[8] = molecular target: T5, recombinant hTACSTD2-Fc-His protein …; test: low-density antigen-coated ELISA, plate coated with 0.1 µg/mL hTACSTD2-Fc-His, purified antibodies; HuK5-70 (humanized antibody); low-density ELISA, 0.1 µg/mL hTROP-2 coat
[9] = molecular target: T5, recombinant hTACSTD2-Fc-His protein …; test: low-density antigen-coated ELISA, plate coated with 0.1 µg/mL hTACSTD2-Fc-His, purified antibodies; HuK5-70-2 (R44G mutant); low-density ELISA, 0.1 µg/mL hTROP-2 coat

B1: anti-hTROP-2 monoclonal antibody clone K5-116-2-1 (antibody, mouse IgG2a, V domains shown)
VH: QVQLQQPGAELVRPGASVKLSCKASGYTFTSYWITWVKQRPGQGLEWIGNIYPSDSYTNYNQKFRDKATLTVDKSSSTAYMQLSSPTSEDSAVYYCSALFDYWGQGTTLTVSS
VL: DILLTQSPAILSVSPGERVSFSCRASQSIGTSIHWYQQRTNGSPRLLIKYASESISGIPSRFSGSGSGTDFILSINSVESEDIADYYCQQSNSWPFTFGSGTKLEIK
notes: mouse IgG2a, hybridoma FERM BP-11253
[1]
  mean fluorescence intensity, times that with PE-labeled anti-mouse IgG alone: 122 times
[2]
  mean fluorescence intensity, times that with PE-labeled anti-mouse IgG alone: 121 times
[3]
  binding result: no binding (tested: 0.1 µg antibody)
[4]
  binding result: no binding (tested: 0.1 µg antibody)

B2: anti-hTROP-2 monoclonal antibody clone K5-107 (antibody, mouse IgG1, V domains shown)
VH: QVQLQQPGSELVRPGASVKLSCKASGYTFTSYWMHWVKQRHGQGLEWIGNIYPGGGYTNYDEKFKSKGTLTVDTSSSTAYMHLSSLTSEDSAVYYCTRSSVFDYWGQGTTLTVSS
VL: B1 VL with S28N, Y36F, I72T
notes: mouse IgG1, hybridoma FERM BP-11252
[3]
  binding result: no binding (tested: 0.1 µg antibody)
[4]
  binding result: no binding (tested: 0.1 µg antibody)

B3: humanized T6-16 antibody HuT6-16-1 (antibody, V domains shown)
VH: QVQLVQSGAEVKKPGASVKVSCKASGYTFTDYNMHWVRQAPGQGLEWIGYIYPYNGGTGYNQRFKSRATMTVDKSTSTAYMELRSLRSDDTAVYYCAREDYGSSPSYAMDYWGQGTMVTVSS
VL: DIVMTQSPLSLPVTPGEPASISCRSSQSLVHGNGNTYLHWYLQKPGQSPQLLIYKVSNRFSGVPDRFSGSGSGTDFTLKISRVEAEDVGVYYCSQTTHVPTFGGGTKVEIK
notes: HuT6-16 VH1 with HuT6-16 VL; also called HuT6-16-1 antibody
[5]
  EC50: 0.027 µg/mL

B4: humanized T6-16 antibody HuT6-16-2 (antibody, V domains shown)
VH: B3 VH with K74T
VL: B3 VL
notes: HuT6-16 VH2 with HuT6-16 VL; also called HuT6-16-2 antibody
[6]
  EC50: 0.049 µg/mL
[5]
  EC50: 0.027 µg/mL

B5: humanized K5-70 antibody (HuK5-70) (antibody, V domains shown)
VH: QVQLVQSGAEVKKPGASVKVSCKASGYTFTIYWINWVRQAPGQRLEWIGNIYPSDSYTNYNQKFKDKATLTVDTSASTAYMELSSLRSEDTAVYYCTRTSMADYWGQGTLVTVSS
VL: EIVLTQSPATLSLSPGERATLSCRASQSIGTSIHWYQQKPGQAPRLLIKYASESISGIPARFSGSGSGTDFTLTISSLEPEDFAVYYCQQSNSWPFTFGQGTKVEIK
notes: human IgG1 / human kappa constant regions from the vectors pFUSE-CHIg-hG1 and pFUSE2-CLIg-hk; also called HuK5-70 antibody
[6]
  EC50: 0.222 µg/mL
  EC50 relative to that of the K5-70 antibody: ~20 times
[5]
  EC50: 0.022 µg/mL
[7]
  EC50: 6 ng/mL
[8]
  EC50: 0.0334 µg/mL

B6: HuK5-70-2 antibody (HuK5-70 R44G mutant antibody) (antibody, V domains shown)
VH: B5 VH with R44G
VL: B5 VL
notes: also called HuK5-70 VH R44G; HuK5-70 VH2
[9]
  EC50: 0.0114 µg/mL
